Results on 64 variants are retold here after the RNAGym collection of RNA variant scans (doi:10.7554/elife.80360).

B1: HDV Ribozyme (parent)
chain: GGCCGGCAUGGUCCCAGCCUCCUCGCUGGCGCCGGCUGGGCAACAUUCCGAGGGGACCGUCCCCUCGGUAAUGGCGAAUGGGACCCA

Variants of B1 are the subject of the series. Description: self-cleavage, relative activity (ratio to wild type); higher = more cleavage; co-transcriptional.
For GGCCGGCAUGGUCCCAGCCUCCUCGCUGGCCCCGGCUGGGCAACAUUCCGAGGGGACCGUCCCCUCGGUAAUGGCGAAUGGGACCCG [G31C A87G], the self-cleavage came to 0.226.
The value for GGCCGGCAUGGUCCCAGCCUCCUCGCUGGCCCCGGCUGGGCAACAUUCCGAGGGGACCGUCCCCUCGGUAAUGGCGAAUGGGACCCC [G31C A87C] was 0.531; that for GGCCGGCAUGGUCCCAGCCUCCUCGCUGGCACCGGCUGGGCAACAUUCCGAGGGUACCGUCCCCUCGGUAAUGGCGAAUGGGACCCA [G31A G55U] was 0.347; that for GGCCGGCAUGGUCCCAGCCUCCUCGCUGGCACCGGCUGGGCAACAUUCCGAGGGGACCGUCCCCUCGGCAAUGGCGAAUGGGACCCA [G31A U69C] was 0.525.
The value for GGCCGGCAUGGUCCCAGCCUCCUCGCUGGCCCCGGCUGGGCAACAUUCCGAGGGGACCGUCCCCUCGGUAAUGGCGCAUGGGACCCA [G31C A77C] was 0.225.
The value for GGCCGGCAUGGUCCCAGCCUCCUCGCUGGCACCGGCUCGGCAACAUUCCGAGGGGACCGUCCCCUCGGUAAUGGCGAAUGGGACCCA [G31A G38C] was 0.142; that for GGCCGGCAUGGUCCCAGCCUCCUCGCUGGCACCGGCUGGGCAACAUUCCGAGGGGACCGUCCCCUCGGUAAUGGCGAAUGGCACCCA [G31A G82C] was 0.146.
On to GGCCGGCAUGGUCCCAGCCUCCUCGCUGGCACCGGCUGGGCAACAUUCCGAGGGGACCGUCCCCUCGGUAAUGGCGAAUGGAACCCA [G31A G82A], for which the self-cleavage was 0.166.
With GGCCGGCAUGGUCCCAGCCUCCUCGCUGGCACCGGCUGGGCAACAUUCCGAGGGGACCGUCCCCUCGGUAACGGCGAAUGGGACCCA [G31A U72C] the figure was 0.256; with GGCCGGCAUGGUCCCAGCCUCCUCGCUGGCACCGGCUGGGCAACAUUCCGAGGGGACCGUCCCCUCGGUAAGGGCGAAUGGGACCCA [G31A U72G], 0.145.
GGCCGGCAUGGUCCCAGCCUCCUCGCUGGCACCGGCUGGCCAACAUUCCGAGGGGACCGUCCCCUCGGUAAUGGCGAAUGGGACCCA [G31A G40C]: the self-cleavage was 0.144.
The value for GGCCGGCAUGGUCCCAGCCUCCUCGCUGGCACCGGCUGGGCAACAGUCCGAGGGGACCGUCCCCUCGGUAAUGGCGAAUGGGACCCA [G31A U46G] was 0.0852.
With GGCCGGCAUGGUCCCAGCCUCCUCGCUGGCACCGGCUGGGCAACACUCCGAGGGGACCGUCCCCUCGGUAAUGGCGAAUGGGACCCA [G31A U46C] the figure was 0.166; with GGCCGGCAUGGUCCCAGCCUCCUCGCUGGCCGCGGCUGGGCAACAUUCCGAGGGGACCGUCCCCUCGGUAAUGGCGAAUGGGACCCA [G31C C32G], 0.0396.
With GGCCGGCAUGGUCCCAGCCUCCUCGCUGGCCACGGCUGGGCAACAUUCCGAGGGGACCGUCCCCUCGGUAAUGGCGAAUGGGACCCA [G31C C32A] the figure was 0.0875; with GGCCGGCAUGGUCCCAGCCUCCUCGCUGGCCUCGGCUGGGCAACAUUCCGAGGGGACCGUCCCCUCGGUAAUGGCGAAUGGGACCCA [G31C C32U], 0.0723.
Regarding GGCCGGCAUGGUCCCAGCCUCCUCGCUGGCCCCGGCUGGGCAACAUUCCGUGGGGACCGUCCCCUCGGUAAUGGCGAAUGGGACCCA [G31C A51U], the self-cleavage was 0.212.
With GGCCGGCAUGGUCCCAGCCUCCUCGCUGGCACCGGCUGGGCAACAUUCCGAGGGGACCGUCCCCUCGGUAAUGGCGAAUGCGACCCA [G31A G81C] the figure was 0.179; with GGCCGGCAUGGUCCCAGCCUCCUCGCUGGCACCGGCUGGGCAACAUUCCGAGGGGACCGUCCCCUCGGUAAUGGCUAAUGGGACCCA [G31A G76U], 0.749.
For GGCCGGCAUGGUCCCAGCCUCCUCGCUGGCACCGGCUGGGCAACAUUCCGAGGGGACCGUCCCCUCGGUAAUGGCAAAUGGGACCCA [G31A G76A], the self-cleavage was 0.606.
With GGCCGGCAUGGUCCCAGCCUCCUCGCUGGCCCCGGCUGGGCAACAUUCCGAGGGGACCGUCCCCUCGGUAAUGGCGAAUGGGUCCCA [G31C A83U] the figure was 0.173; with GGCCGGCAUGGUCCCAGCCUCCUCGCUGGCCCCGGCUGGGCAACAUUCCGAGGGGACCGUCCCCUCGGUAAUGGCGAAUGGGGCCCA [G31C A83G], 0.219; with GGCCGGCAUGGUCCCAGCCUCCUCGCUGGCACCGGCUGGGCAACAUACCGAGGGGACCGUCCCCUCGGUAAUGGCGAAUGGGACCCA [G31A U47A], 0.332.
Take GGCCGGCAUGGUCCCAGCCUCCUCGCUGGCACCGGCUGGGCAACAUCCCGAGGGGACCGUCCCCUCGGUAAUGGCGAAUGGGACCCA [G31A U47C]: the self-cleavage was determined as 0.424.
As to GGCCGGCAUGGUCCCAGCCUCCUCGCUGGCACCGGCUGGGCAACAUUCCGAGGGGACCGUCCCCUCGGUAAUGACGAAUGGGACCCA [G31A G74A], the self-cleavage is 0.132.
With GGCCGGCAUGGUCCCAGCCUCCUCGCUGGCACCGACUGGGCAACAUUCCGAGGGGACCGUCCCCUCGGUAAUGGCGAAUGGGACCCA [G31A G35A] the figure was 0.0455.
The value for GGCCGGCAUGGUCCCAGCCUCCUCGCUGGCACCGGCUGGGCAACAUUCCUAGGGGACCGUCCCCUCGGUAAUGGCGAAUGGGACCCA [G31A G50U] was 0.442.
With GGCCGGCAUGGUCCCAGCCUCCUCGCUGGCACCGGCUGGGCAACAUUCCAAGGGGACCGUCCCCUCGGUAAUGGCGAAUGGGACCCA [G31A G50A] the figure was 0.626; with GGCCGGCAUGGUCCCAGCCUCCUCGCUGGCACCGGCUGGGCAACAUUCCGAGGGGACCGUCCCCUCGGUAAUGGCGAAUGGGACCGA [G31A C86G], 0.573; with GGCCGGCAUGGUCCCAGCCUCCUCGCUGGCACCGGCUGGGCAACAUUCCGAGGGGACCGCCCCCUCGGUAAUGGCGAAUGGGACCCA [G31A U60C], 0.32.
Consider GGCCGGCAUGGUCCCAGCCUCCUCGCUGGCACCGGCUGGGCAACAUUCCGAGGGGACCGUCCCCUCGGUAAUGGCGAAUGGGACUCA [G31A C85U], for which the self-cleavage was 0.404.
For GGCCGGCAUGGUCCCAGCCUCCUCGCUGGCACCGGCUGGGCAACAUUCCGAGGGGACCGUCCCCUCGGUAAUGGCGAAUGGGACACA [G31A C85A], the self-cleavage amounted to 0.415.
Take GGCCGGCAUGGUCCCAGCCUCCUCGCUGGCCCCGGCUGGGCAACAUUCCGAGGGGUCCGUCCCCUCGGUAAUGGCGAAUGGGACCCA [G31C A56U]: the self-cleavage was 0.305.
With GGCCGGCAUGGUCCCAGCCUCCUCGCUGGCCCCGGCUGGGCAACAUUCCGAGGGGCCCGUCCCCUCGGUAAUGGCGAAUGGGACCCA [G31C A56C] the figure was 0.325; with GGCCGGCAUGGUCCCAGCCUCCUCGCUGGCACCGGCUGAGCAACAUUCCGAGGGGACCGUCCCCUCGGUAAUGGCGAAUGGGACCCA [G31A G39A], 0.257.
Regarding GGCCGGCAUGGUCCCAGCCUCCUCGCUGGCACCGGCUGUGCAACAUUCCGAGGGGACCGUCCCCUCGGUAAUGGCGAAUGGGACCCA [G31A G39U], the self-cleavage came out at 0.0898.
With GGCCGGCAUGGUCCCAGCCUCCUCGCUGGCACCGGCUGGGCAACAUUCCGAGGGGACCGUCCCCUCGGUAAUGGCGAAUCGGACCCA [G31A G80C] the figure was 0.185; with GGCCGGCAUGGUCCCAGCCUCCUCGCUGGCACCGGCUGGGCAACAUUCCGAGGGGACCGUCCCCUCGGUAAUGGCGAAUAGGACCCA [G31A G80A], 0.103.
With GGCCGGCAUGGUCCCAGCCUCCUCGCUGGCCCCGGCUGGGCAACCUUCCGAGGGGACCGUCCCCUCGGUAAUGGCGAAUGGGACCCA [G31C A45C] the figure was 0.104; with GGCCGGCAUGGUCCCAGCCUCCUCGCUGGCCCCGGCUGGGCAACGUUCCGAGGGGACCGUCCCCUCGGUAAUGGCGAAUGGGACCCA [G31C A45G], 0.293.
Turning to GGCCGGCAUGGUCCCAGCCUCCUCGCUGGCACCGGCUGGGCAACAUUCCGAGGGGACCGUCCCCGCGGUAAUGGCGAAUGGGACCCA [G31A U65G], the self-cleavage is 0.34.
The value for GGCCGGCAUGGUCCCAGCCUCCUCGCUGGCACCGGCUGGGCAACAUUCCGAGGGGACCGUCCCCCCGGUAAUGGCGAAUGGGACCCA [G31A U65C] was 0.462; that for GGCCGGCAUGGUCCCAGCCUCCUCGCUGGCACCGGCUGGGCAACAUUCCGAGGGGACCGUCCCCACGGUAAUGGCGAAUGGGACCCA [G31A U65A] was 0.366; that for GGCCGGCAUGGUCCCAGCCUCCUCGCUGGCACCGGCUGGGCAACAUUCCGAGGGGACCGUCCCCUCGGUAAUGGUGAAUGGGACCCA [G31A C75U] was 0.122.
With GGCCGGCAUGGUCCCAGCCUCCUCGCUGGCCCCGGCUGGGCAACAUUCCGAGGGGACCGUCCCCUCGGUAAUGGCGAUUGGGACCCA [G31C A78U] the figure was 0.148; with GGCCGGCAUGGUCCCAGCCUCCUCGCUGGCACCGGCUGGGCAACAUUCCGAGGGGACCCUCCCCUCGGUAAUGGCGAAUGGGACCCA [G31A G59C], 0.348.
For GGCCGGCAUGGUCCCAGCCUCCUCGCUGGCACCGGCUGGGCAACAUUCCGAGGAGACCGUCCCCUCGGUAAUGGCGAAUGGGACCCA [G31A G54A], the self-cleavage turned out to be 0.295.
On to GGCCGGCAUGGUCCCAGCCUCCUCGCUGGCACCGGCUGGGCAACAUUCCGAGGUGACCGUCCCCUCGGUAAUGGCGAAUGGGACCCA [G31A G54U], for which the self-cleavage turned out to be 0.197.
The value for GGCCGGCAUGGUCCCAGCCUCCUCGCUGGCACCGGCUGGGCAACAUUCCGAGGCGACCGUCCCCUCGGUAAUGGCGAAUGGGACCCA [G31A G54C] was 0.254; that for GGCCGGCAUGGUCCCAGCCUCCUCGCUGGCACCGGCUGGGCAACAUUCCGAGGGGACCGUCCCCUCGGUAAUGGCGAAUGGGAUCCA [G31A C84U] was 0.337; that for GGCCGGCAUGGUCCCAGCCUCCUCGCUGGCACCGGCUGGGCAACAUUCCGAGGGGACCGUCCCCUCGGUAAUGGCGAAUGGGAACCA [G31A C84A] was 0.326.
On to GGCCGGCAUGGUCCCAGCCUCCUCGCUGGCACCUGCUGGGCAACAUUCCGAGGGGACCGUCCCCUCGGUAAUGGCGAAUGGGACCCA [G31A G34U], for which the self-cleavage is 0.0863.
With GGCCGGCAUGGUCCCAGCCUCCUCGCUGGCCCCGGCUGGGAAACAUUCCGAGGGGACCGUCCCCUCGGUAAUGGCGAAUGGGACCCA [G31C C41A] the figure was 0.305; with GGCCGGCAUGGUCCCAGCCUCCUCGCUGGCCCCGGCUGGGCCACAUUCCGAGGGGACCGUCCCCUCGGUAAUGGCGAAUGGGACCCA [G31C A42C], 0.128; with GGCCGGCAUGGUCCCAGCCUCCUCGCUGGCCCCGGCUGGGCUACAUUCCGAGGGGACCGUCCCCUCGGUAAUGGCGAAUGGGACCCA [G31C A42U], 0.0707.
With GGCCGGCAUGGUCCCAGCCUCCUCGCUGGCCCCGGCUGGGCAACAUUCCGAGGGGACCGUCCCCUCGGUAAUGGCGAAUGGGACCCA [G31C] the figure was 0.363; with GGCCGGCAUGGUCCCAGCCUCCUCGCUGGCACCGGCUGGGCAACAUUCCGAGCGGACCGUCCCCUCGGUAAUGGCGAAUGGGACCCA [G31A G53C], 0.305; with GGCCGGCAUGGUCCCAGCCUCCUCGCUGGCACCGGCUGGGCAACAUUCCGAGUGGACCGUCCCCUCGGUAAUGGCGAAUGGGACCCA [G31A G53U], 0.346.
With GGCCGGCAUGGUCCCAGCCUCCUCGCUGGCCCCGGCUGGGCAACAUUCCGAGGGGACCGUCCCCUCGGUCAUGGCGAAUGGGACCCA [G31C A70C] the figure was 0.266.
Take GGCCGGCAUGGUCCCAGCCUCCUCGCUGGCCCAGGCUGGGCAACAUUCCGAGGGGACCGUCCCCUCGGUAAUGGCGAAUGGGACCCA [G31C C33A]: the self-cleavage was 0.0875.
As for GGCCGGCAUGGUCCCAGCCUCCUCGCUGGCCCGGGCUGGGCAACAUUCCGAGGGGACCGUCCCCUCGGUAAUGGCGAAUGGGACCCA [G31C C33G], the self-cleavage was 0.0852.
With GGCCGGCAUGGUCCCAGCCUCCUCGCUGGCACCGGCUGGGCAACAUUCCGAGGGGACCGUCCCCUCCGUAAUGGCGAAUGGGACCCA [G31A G67C] the figure was 0.513; with GGCCGGCAUGGUCCCAGCCUCCUCGCUGGCACCGGCCGGGCAACAUUCCGAGGGGACCGUCCCCUCGGUAAUGGCGAAUGGGACCCA [G31A U37C], 0.366.
The value for GGCCGGCAUGGUCCCAGCCUCCUCGCUGGCACCGGCGGGGCAACAUUCCGAGGGGACCGUCCCCUCGGUAAUGGCGAAUGGGACCCA [G31A U37G] was 0.242.
